In article PMC1931443, “Vertebrate DM domain proteins bind similar DNA sequences and can heterodimerize on DNA”:

Tests used:
DMRT5 [1] = target: T1, DMRT5 (mouse, UniProt A2A9A2 1-531); assay: competition; 40-fold excess; tolerated; EMSA: 10 mM Tris-HCl pH 7.9, 100 mM KCl, 10% glycerol, 5 mM MgCl2, 1 mM spermidine, 0.075% Triton-X-100, 1 mM DTT, 1 ug BSA, 0.1 ug dI-dC, 75 ng plasmid DNA, 0.5 ng probe, 4 ul IVT mix in 20 ul, on ice 10 min; gel at 4 C; IVT with 20 uM ZnSO4; settings: protein: ivt; tags: N-terminal Myc; 5' overhang 4 nt both ends
DMRT3 [2] = target: T2, DMRT3 (mouse, UniProt Q80WT2 1-476); assay: EMSA supershift; mainly dimer; 9E10; EMSA: 10 mM Tris-HCl pH 7.9, 100 mM KCl, 10% glycerol, 5 mM MgCl2, 1 mM spermidine, 0.075% Triton-X-100, 1 mM DTT, 1 ug BSA, 0.1 ug dI-dC, 75 ng plasmid DNA, 0.5 ng probe, 4 ul IVT mix in 20 ul, on ice 10 min; gel at 4 C; IVT with 20 uM ZnSO4; settings: protein: ivt; tags: N-terminal Myc; label: 32P (Klenow fill-in); 5' overhang 4 nt both ends (filled in on labeling)
DMRT4 = DMRT4 (mouse, UniProt Q8CFG4 1-490); assay: EMSA; complex fails to enter gel (possible aggregate); EMSA: 10 mM Tris-HCl pH 7.9, 100 mM KCl, 10% glycerol, 5 mM MgCl2, 1 mM spermidine, 0.075% Triton-X-100, 1 mM DTT, 1 ug BSA, 0.1 ug dI-dC, 75 ng plasmid DNA, 0.5 ng probe, 4 ul IVT mix in 20 ul, on ice 10 min; gel at 4 C; IVT with 20 uM ZnSO4; settings: protein: ivt; tags: C-terminal Myc; chain copies: 2; label: 32P (Klenow fill-in); 5' overhang 4 nt both ends (filled in on labeling)
DMRT5 [3] = target: T1, DMRT5; assay: EMSA supershift; 9E10; EMSA: 10 mM Tris-HCl pH 7.9, 100 mM KCl, 10% glycerol, 5 mM MgCl2, 1 mM spermidine, 0.075% Triton-X-100, 1 mM DTT, 1 ug BSA, 0.1 ug dI-dC, 75 ng plasmid DNA, 0.5 ng probe, 4 ul IVT mix in 20 ul, on ice 10 min; gel at 4 C; IVT with 20 uM ZnSO4; settings: protein: ivt; tags: N-terminal Myc; label: 32P (Klenow fill-in); 5' overhang 4 nt both ends (filled in on labeling)
DMRT3 [4] = target: T2, DMRT3; assay: EMSA supershift; primarily monomer; 9E10; EMSA: 10 mM Tris-HCl pH 7.9, 100 mM KCl, 10% glycerol, 5 mM MgCl2, 1 mM spermidine, 0.075% Triton-X-100, 1 mM DTT, 1 ug BSA, 0.1 ug dI-dC, 75 ng plasmid DNA, 0.5 ng probe, 4 ul IVT mix in 20 ul, on ice 10 min; gel at 4 C; IVT with 20 uM ZnSO4; settings: protein: ivt; tags: N-terminal Myc; label: 32P (Klenow fill-in); 5' overhang 4 nt both ends (filled in on labeling)

T2 sequence (Q80WT2 whole entry): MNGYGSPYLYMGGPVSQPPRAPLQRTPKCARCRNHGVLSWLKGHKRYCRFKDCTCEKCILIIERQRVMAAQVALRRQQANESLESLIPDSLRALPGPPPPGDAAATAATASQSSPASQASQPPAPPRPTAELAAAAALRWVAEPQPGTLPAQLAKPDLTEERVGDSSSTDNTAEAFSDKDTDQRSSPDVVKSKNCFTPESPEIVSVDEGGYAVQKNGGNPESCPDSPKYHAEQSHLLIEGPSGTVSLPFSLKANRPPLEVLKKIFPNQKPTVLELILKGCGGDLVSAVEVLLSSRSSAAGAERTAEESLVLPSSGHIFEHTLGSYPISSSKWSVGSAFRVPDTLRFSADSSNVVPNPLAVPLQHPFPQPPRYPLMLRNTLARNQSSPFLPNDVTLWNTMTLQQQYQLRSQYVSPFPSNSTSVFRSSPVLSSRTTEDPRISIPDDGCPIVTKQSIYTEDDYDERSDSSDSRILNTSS
T1 sequence (A2A9A2 whole entry): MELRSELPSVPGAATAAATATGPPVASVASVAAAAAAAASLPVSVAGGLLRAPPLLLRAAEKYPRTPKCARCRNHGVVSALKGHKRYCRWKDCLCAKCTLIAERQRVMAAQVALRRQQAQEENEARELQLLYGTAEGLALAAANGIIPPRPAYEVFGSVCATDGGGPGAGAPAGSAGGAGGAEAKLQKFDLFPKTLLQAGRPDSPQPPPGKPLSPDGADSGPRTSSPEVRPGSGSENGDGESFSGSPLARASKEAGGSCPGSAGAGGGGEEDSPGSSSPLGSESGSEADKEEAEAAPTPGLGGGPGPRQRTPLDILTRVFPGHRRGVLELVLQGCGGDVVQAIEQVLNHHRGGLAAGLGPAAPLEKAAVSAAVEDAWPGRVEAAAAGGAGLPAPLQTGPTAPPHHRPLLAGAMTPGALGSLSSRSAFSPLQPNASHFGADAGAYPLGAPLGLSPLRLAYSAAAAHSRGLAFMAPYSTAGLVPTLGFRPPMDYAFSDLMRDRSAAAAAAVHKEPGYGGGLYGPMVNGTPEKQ
DMRT4, sequence (Q8CFG4 whole entry): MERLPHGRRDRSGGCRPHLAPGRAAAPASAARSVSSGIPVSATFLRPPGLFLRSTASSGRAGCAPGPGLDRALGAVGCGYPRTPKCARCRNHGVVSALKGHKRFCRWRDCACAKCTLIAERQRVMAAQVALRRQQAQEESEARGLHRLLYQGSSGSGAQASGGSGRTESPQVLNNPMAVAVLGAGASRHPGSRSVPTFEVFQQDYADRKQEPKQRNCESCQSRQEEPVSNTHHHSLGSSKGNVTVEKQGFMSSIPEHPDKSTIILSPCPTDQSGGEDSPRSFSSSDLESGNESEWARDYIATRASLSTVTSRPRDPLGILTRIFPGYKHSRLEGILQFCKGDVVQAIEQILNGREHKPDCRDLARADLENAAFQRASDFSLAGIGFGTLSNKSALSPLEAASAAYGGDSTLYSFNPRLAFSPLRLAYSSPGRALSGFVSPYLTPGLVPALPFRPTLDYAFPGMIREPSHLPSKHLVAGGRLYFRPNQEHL

B1: DMRT1 site -8G (dsDNA)
DNA 1: TCGAGATGTGATACATTGTTGC
DNA 2: TCGAGCAACAATGTATCACATC
**Q.** Does B1 bind (DMRT5 [1])?
**A.** binds

B2: 1RE (Figure 2) (dsDNA)
DNA 1: TCGAGCCCGCAACAATGTTGCAAATC
DNA 2: TCGAGATTTGCAACATTGTTGCGGGC
**Q.** What does the source list for B2?
**A.** binding result (DMRT3 [2]): binds; binding result (DMRT4): binds; binding result (DMRT5 [3]): binds

B3: 3RE (dsDNA)
DNA 1: TCGAGAACAATGTAACAATTTCGCCC
DNA 2: TCGAGGGCGAAATTGTTACATTGTTC
**Q.** Does B3 bind (DMRT3 [4])?
**A.** binds
